Consider one molecule from patent US20210355221A1, “Targeting the Non-Canonical NFkB Pathway in Cancer Immunotherapy” (The General Hospital Corporation, priority 2018, published 2021).

For assay [1], the system named is MC38 tumors. As to the kind of experiment: MC38 tumor model: tumor growth, survival, re-challenge. It is filed as in vivo, mice. The note with it: MC38 tumor-bearing mice, treatment as labelled. As for the experimental part:
MC38 tumor cell lines were obtained from Dr. Mark Smyth (QIMR Berghofer). MC38 cells were implanted at 2×10^6 cells in the flank. B16F10 cell lines were obtained from ATCC. B16F10 cells were implanted intradermally at 0.5×10^6 cells in the flank. All tumor models were allowed to grow for one week prior to therapy. Tumor sizes were approximately 75 mm^3 before treatment initiation, and starting tumor volumes were normalized between treatment groups. Percent tumor changes were calculated as percent difference of mouse tumor volume from pre-treatment baseline, measured using digital caliper. Lung seeding B16F10 models received 0.5×10^6 cells intravenously and were allowed to grow for 10 days from the point of implantation. Mouse tumors were allowed to grow to a maximum of 2 cm in diameter, or until tumor ulceration occurred. These were considered as endpoints for survival experiments in accordance with MGH IACUC regulations.
(§1) Tumor bearing mice, with a tumor size of approximately 75 mm^3, were treated with 200 μg of aPD-1 and/or 100 μg of aCD40 intraperitoneally for immunotherapy studies. For combination treatment studies, both aPD-1 and aCD40 were administered at the same time. For IL-12 neutralization studies, mice were dosed with 500 μg of anti-IL-12p40 Clone 17.8 daily for 5-7 days following aPD-1 therapy. Neutralization of IFN-γ in vivo was performed by administering 1 mg of anti-IFN-γ Clone XMG1.2 initially with 500 μg of anti-IFN-γ dosed daily intraperitoneally for days 1-3. The cIAP1/2 inhibitor AZD5582 (Hennessy et al., 2013) was purchased from Selleck Chem and was resuspended in sterile saline. Mice received a single dose of AZD5582 at 10 mg/kg, intraperitoneally. […]
Long-term surviving mice from aPD-1 and aCD40 combination therapy were re-challenged with either MC38 or B16F10 tumors at 50 days following primary tumor rejection. […] Naive C57BL/6J mice were implanted alongside re-challenge mice, and these mice were monitored for tumor growth for 2 weeks following implantation. […]

Assay [2] deals with B16F10 melanoma. As to the kind of experiment: B16F10 melanoma tumor model: tumor growth, survival, re-challenge. It is filed as in vivo. The note with it: B16F10 melanoma-bearing mice, treatment as labelled.
Protocol: Tumor bearing mice, with a tumor size of approximately 75 mm^3, were treated with 200 μg of aPD-1 and/or 100 μg of aCD40 intraperitoneally for immunotherapy studies. For combination treatment studies, both aPD-1 and aCD40 were administered at the same time. […] Mice received a single dose of AZD5582 at 10 mg/kg, intraperitoneally. […]
Assay [3] relates to IFN-γ-eYFP^+ cells. As to the kind of experiment: Intravital imaging of MC38 tumors in IFN-γ-eYFP reporter mice. The assay is classed as in vivo. The note with it: recombinant IL-12, by day four, in the absence of aPD-1. As for the experimental part: as §1, with “saline.” for “saline. Mice received a single dose of AZD5582 at 10 mg/kg, intraperitoneally.”
Interferon gamma reporter (IFN-γ-eYFP) or IL-12p40 reporter (IL12p40-eYFP) mice were anesthetized and dorsal skin-fold window chambers were installed as previously described (Thurber et al., 2013) and mice were treated with analgesic (Buprenorphine 0.1 mg/kg/day) for 3 days following chamber implantation. […] Anesthetized mice were kept on a heating pad kept at 37° C., vital signs monitored and mice were imaged using an Olympus FluoView FV1000MPE confocal imaging system (Olympus America). […] Sequential scanning (5 μm slices) with 405, 473, 559, and 635 nm lasers was performed using voltage and power settings that were optimized using fluorescence minus-one control mice prior to time lapse acquisition. […]

B1: IL-12: recombinant IL-12 in mouse studies; recombinant human IL-12p70 (PeproTech) in the human ex vivo studies (protein, UniProt P29459 23-219; P29460 23-328, looked up)
Interleukin-12 subunit alpha: RNLPVATPDPGMFPCLHHSQNLLRAVSNMLQKARQTLEFYPCTSEEIDHEDITKDKTSTVEACLPLELTKNESCLNSRETSFITNGSCLASRKTSFMMALCLSSIYEDLKMYQVEFKTMNAKLLMDPKRQIFLDQNMLAVIDELMQALNFNSETVPQKSSLEEPDFYKTKIKLCILLHAFRIRAVTIDRVMSYLNAS
Interleukin-12 subunit beta: IWELKKDVYVVELDWYPDAPGEMVVLTCDTPEEDGITWTLDQSSEVLGSGKTLTIQVKEFGDAGQYTCHKGGEVLSHSLLLLHKKEDGIWSTDILKDQKEPKNKTFLRCEAKNYSGRFTCWWLTTISTDLTFSVKSSRGSSDPQGVTCGAATLSAERVRGDNKEYEYSVECQEDSACPAAEESLPIEVMVDAVHKLKYENYTSSFFIRDIIKPDPPKNLQLKPLKNSRQVEVSWEYPDTWSTPHSYFSLTFCVQVQGKSKREKKDRVFTDKTSATVICRKNASISVRAQDRYYSSSWSEWASVPCS
With B1, the “antitumor response, MC38 tumors” value in assay [1] is on record as “robust antitumor responses”. In addition, the “antitumor response, B16F10 tumors” value in assay [2] is listed as “substantial antitumor effect”. The “fold increase of IFN-γ-eYFP^+ cells” value in assay [3] was 5.9±0.7 fold.
